Ratio to parent data for six variants are collected here from article PMC13001094, “Cargo Recognition of Nesprin‑2 by the Dynein Adapter Bicaudal D2 for a Nuclear Positioning Pathway That Is Important for Brain Development” (Biochemistry, 2026).

B1: His6-tagged human BicD2-CTD (aa 715–804) [human] / GST-tagged mouse Nesprin-2 (aa 6123–6421) [mouse] (parent complex)
chain 1: YENEKAMVTETMMKLRNELKALKEDAATFSSLRAMFATRCDEYITQLDEMQRQLAAAEDEKKTLNSLLRMAIQQKLALTQRLELLELDHE
chain 2: RLWQKFLDDYSRFEDWLKSAERTAACPNSSEVLYTNAKEELKRFEAFQRQIHERLTQLELINKQYRRLARENRTDTASKLKQMVHEGNQRWDNLQKRVTAILRRLRYFTNQREEFEGTRESILVWLTEMDLQLTNVEHFSESDAEDKMRQLNGFQQEITLNTNKIDQLIVFGEQLIQKSEPLDAVLIEDELEELHRYCQEVFGRVSRFHRRLTSHTPGLDDEKEASENETDIEDPREIQADSWRKRRESEEPTSPQSLCHLVPPALGHERSGCETPVSVDSIPLEWDHTGDVGGSSSHE

The variants in the first experiment derive from B1. Description: GST-pulldown, SDS-PAGE band intensity; n = 3; parent: 1; read off a plot.
Turning to chain 1 E83C, the ratio to parent is approximately 0.47.
In the case of chain 1 R69A, the ratio to parent was approximately 0.47.

In a further experiment the parent is B1. The description is as above. The source holds these as a separate data set.
Turning to chain 2 H138A, the ratio to parent is approximately 0.29.
With chain 2 V124A, chain 2 L131A, chain 2 F139A, the ratio to parent is approximately 0.04.
The same measure, in the same setting: as for chain 2 Y197A, the figure is approximately 0.32; as for chain 2 E128A, approximately 0.81.
